Measurements: patent publication US20240209076A1 (KODIAK SCIENCES, published 2024)

Target: T1, human IL-6 (human, UniProt P05231 30-212)
T1 construct: IL-6 flowed over captured antibodies
Experiment: SPR Biacore, supernatant Ab on Protein A chip, 37 C

T1 sequence (P05231 30-212 limits assumed): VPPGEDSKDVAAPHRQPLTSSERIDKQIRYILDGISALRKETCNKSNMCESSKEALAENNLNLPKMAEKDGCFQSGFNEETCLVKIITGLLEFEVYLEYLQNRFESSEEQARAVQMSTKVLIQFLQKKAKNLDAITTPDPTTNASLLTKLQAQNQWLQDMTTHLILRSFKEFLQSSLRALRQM

Binder | Kd [nM] | koff [s⁻¹] | kon [M⁻¹ s⁻¹]
anti-IL-6 antibody, heavy chain T63V, G66D / light chain M32L, M50D, N52S, M88Q (antibody, IgG1, V domains shown, Full IgG1 (Expi293); VL = variant III) VH: EVQLVESGGGLVQPGGSLRLSCAASGFTFSPFAMSWVRQAPGKGLEWVAKISPGGSWTYYSDVVTDRFTFSLDTSKSTAYLQMNSLRAEDTAVYYCARQLWGYYALDIWGQGTLVTVSS VL: DIQLTQSPSSLSASVGDRVTITCSASISVSYLYWYQQKPGKAPKLLIYDDSSLASGVPSRFSGSGSGTDFTLTISSLQPEDFATYYCQQWSGYPYTFGQGTKVEIK | 0.274 | 0.00043 | 1.57e+06
anti-IL-6 antibody, heavy chain T65G, G66D / light chain M32L, M50D, N52S, M88Q (antibody, IgG1, V domains shown, Full IgG1 (Expi293); VL = variant III) VH: EVQLVESGGGLVQPGGSLRLSCAASGFTFSPFAMSWVRQAPGKGLEWVAKISPGGSWTYYSDTVGDRFTFSLDTSKSTAYLQMNSLRAEDTAVYYCARQLWGYYALDIWGQGTLVTVSS VL: DIQLTQSPSSLSASVGDRVTITCSASISVSYLYWYQQKPGKAPKLLIYDDSSLASGVPSRFSGSGSGTDFTLTISSLQPEDFATYYCQQWSGYPYTFGQGTKVEIK | 0.311 | 0.000477 | 1.53e+06
anti-IL-6 antibody, heavy chain T65Y, G66D / light chain M32L, M50D, N52S, M88Q (antibody, IgG1, V domains shown, Full IgG1 (Expi293); VL = variant III) VH: EVQLVESGGGLVQPGGSLRLSCAASGFTFSPFAMSWVRQAPGKGLEWVAKISPGGSWTYYSDTVYDRFTFSLDTSKSTAYLQMNSLRAEDTAVYYCARQLWGYYALDIWGQGTLVTVSS VL: DIQLTQSPSSLSASVGDRVTITCSASISVSYLYWYQQKPGKAPKLLIYDDSSLASGVPSRFSGSGSGTDFTLTISSLQPEDFATYYCQQWSGYPYTFGQGTKVEIK | 0.237 | 0.000367 | 1.55e+06
anti-IL-6 antibody, heavy chain T65R, G66D / light chain M32L, M50D, N52S, M88Q (antibody, IgG1, V domains shown, Full IgG1 (Expi293); VL = variant III) VH: EVQLVESGGGLVQPGGSLRLSCAASGFTFSPFAMSWVRQAPGKGLEWVAKISPGGSWTYYSDTVRDRFTFSLDTSKSTAYLQMNSLRAEDTAVYYCARQLWGYYALDIWGQGTLVTVSS VL: DIQLTQSPSSLSASVGDRVTITCSASISVSYLYWYQQKPGKAPKLLIYDDSSLASGVPSRFSGSGSGTDFTLTISSLQPEDFATYYCQQWSGYPYTFGQGTKVEIK | 0.327 | 0.000532 | 1.63e+06
anti-IL-6 antibody, heavy chain T63R, G66D / light chain M32L, M50D, N52S, M88Q (antibody, IgG1, V domains shown, Full IgG1 (Expi293); VL = variant III) VH: EVQLVESGGGLVQPGGSLRLSCAASGFTFSPFAMSWVRQAPGKGLEWVAKISPGGSWTYYSDRVTDRFTFSLDTSKSTAYLQMNSLRAEDTAVYYCARQLWGYYALDIWGQGTLVTVSS VL: DIQLTQSPSSLSASVGDRVTITCSASISVSYLYWYQQKPGKAPKLLIYDDSSLASGVPSRFSGSGSGTDFTLTISSLQPEDFATYYCQQWSGYPYTFGQGTKVEIK | 0.273 | 0.000526 | 1.92e+06

Further lines, results first:

Kd [nM] | koff [s⁻¹] | kon [M⁻¹ s⁻¹] | Binder
0.239 | 0.000542 | 2.27e+06 | anti-IL-6 antibody, heavy chain T65A, G66D / light chain M32L, M50D, N52S, M88Q (antibody, IgG1, V domains shown, Full IgG1 (Expi293); VL = variant III) VH: EVQLVESGGGLVQPGGSLRLSCAASGFTFSPFAMSWVRQAPGKGLEWVAKISPGGSWTYYSDTVADRFTFSLDTSKSTAYLQMNSLRAEDTAVYYCARQLWGYYALDIWGQGTLVTVSS VL: DIQLTQSPSSLSASVGDRVTITCSASISVSYLYWYQQKPGKAPKLLIYDDSSLASGVPSRFSGSGSGTDFTLTISSLQPEDFATYYCQQWSGYPYTFGQGTKVEIK
0.322 | 0.000384 | 1.19e+06 | anti-IL-6 antibody, heavy chain T65W, G66D / light chain M32L, M50D, N52S, M88Q (antibody, IgG1, V domains shown, Full IgG1 (Expi293); VL = variant III) VH: EVQLVESGGGLVQPGGSLRLSCAASGFTFSPFAMSWVRQAPGKGLEWVAKISPGGSWTYYSDTVWDRFTFSLDTSKSTAYLQMNSLRAEDTAVYYCARQLWGYYALDIWGQGTLVTVSS VL: DIQLTQSPSSLSASVGDRVTITCSASISVSYLYWYQQKPGKAPKLLIYDDSSLASGVPSRFSGSGSGTDFTLTISSLQPEDFATYYCQQWSGYPYTFGQGTKVEIK
0.291 | 0.000391 | 1.34e+06 | anti-IL-6 antibody, heavy chain T65F, G66D / light chain M32L, M50D, N52S, M88Q (antibody, IgG1, V domains shown, Full IgG1 (Expi293); VL = variant III) VH: EVQLVESGGGLVQPGGSLRLSCAASGFTFSPFAMSWVRQAPGKGLEWVAKISPGGSWTYYSDTVFDRFTFSLDTSKSTAYLQMNSLRAEDTAVYYCARQLWGYYALDIWGQGTLVTVSS VL: DIQLTQSPSSLSASVGDRVTITCSASISVSYLYWYQQKPGKAPKLLIYDDSSLASGVPSRFSGSGSGTDFTLTISSLQPEDFATYYCQQWSGYPYTFGQGTKVEIK
0.241 | 0.000459 | 1.91e+06 | anti-IL-6 antibody, heavy chain T63Y, G66D / light chain M32L, M50D, N52S, M88Q (antibody, IgG1, V domains shown, Full IgG1 (Expi293); VL = variant III) VH: EVQLVESGGGLVQPGGSLRLSCAASGFTFSPFAMSWVRQAPGKGLEWVAKISPGGSWTYYSDYVTDRFTFSLDTSKSTAYLQMNSLRAEDTAVYYCARQLWGYYALDIWGQGTLVTVSS VL: DIQLTQSPSSLSASVGDRVTITCSASISVSYLYWYQQKPGKAPKLLIYDDSSLASGVPSRFSGSGSGTDFTLTISSLQPEDFATYYCQQWSGYPYTFGQGTKVEIK
0.293 | 0.000446 | 1.53e+06 | anti-IL-6 antibody, heavy chain T65L, G66D / light chain M32L, M50D, N52S, M88Q (antibody, IgG1, V domains shown, Full IgG1 (Expi293); VL = variant III) VH: EVQLVESGGGLVQPGGSLRLSCAASGFTFSPFAMSWVRQAPGKGLEWVAKISPGGSWTYYSDTVLDRFTFSLDTSKSTAYLQMNSLRAEDTAVYYCARQLWGYYALDIWGQGTLVTVSS VL: DIQLTQSPSSLSASVGDRVTITCSASISVSYLYWYQQKPGKAPKLLIYDDSSLASGVPSRFSGSGSGTDFTLTISSLQPEDFATYYCQQWSGYPYTFGQGTKVEIK
